Among the data in article PMC11649247 are stoichiometry N values, retold here.

This assay has as its target Mycobacterium tuberculosis polyketide synthase 13 (Mt-Pks13) (Mycobacterium tuberculosis) (UniProt I6X8D2). As to the kind of experiment: AUC; sedimentation velocity at pH 6 (of a series from pH 6 to 8); triple buffer (20 mM each sodium acetate, Tris/HCl, CHES), 150 mM NaCl, 2.5 mM βME; 30 000 r.p.m.; 4 °C or 20 °C; dimer to monomers.

With “Mycobacterium tuberculosis polyketide synthase 13 (Mt-Pks13) (from UniProt I6X8D2 1-1733) (enzyme)”, the stoichiometry N was found to be 2.
